Consider one molecule from doi:10.1101/2023.02.01.526621 (bioRxiv, 2023).

The target in this test is T1, GST-CESA3CD (catalytic domain of cellulose synthase CESA3 fused to GST) (Arabidopsis thaliana, UniProt Q941L0 305-843).
T1 sequence (looked up): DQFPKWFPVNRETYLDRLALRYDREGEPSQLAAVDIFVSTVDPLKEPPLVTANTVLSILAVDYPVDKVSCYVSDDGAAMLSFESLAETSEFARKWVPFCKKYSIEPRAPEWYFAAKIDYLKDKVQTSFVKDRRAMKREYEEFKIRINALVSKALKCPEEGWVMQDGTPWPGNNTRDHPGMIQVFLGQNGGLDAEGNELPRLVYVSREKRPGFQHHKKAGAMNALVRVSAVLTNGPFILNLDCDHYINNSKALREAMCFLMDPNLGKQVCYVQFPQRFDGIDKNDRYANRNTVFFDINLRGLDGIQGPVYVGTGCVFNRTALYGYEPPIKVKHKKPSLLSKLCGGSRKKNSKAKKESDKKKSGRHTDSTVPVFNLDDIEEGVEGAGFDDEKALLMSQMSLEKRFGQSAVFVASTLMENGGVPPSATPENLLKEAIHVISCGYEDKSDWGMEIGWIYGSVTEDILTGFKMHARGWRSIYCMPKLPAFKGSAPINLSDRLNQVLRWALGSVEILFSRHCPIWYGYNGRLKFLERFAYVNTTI
The test is described as follows: pull-down.

B1: His-tagged full-length CALCIUM-DEPENDENT PROTEIN KINASE32 (His-CPK32) (enzyme, Arabidopsis thaliana, UniProt Q6NLQ6 1-538, looked up)
chain: MGNCCGTAGSLAQNDNKPKKGRKKQNPFSIDYGLHHGGGDGGGRPLKLIVLNDPTGREIESKYTLGRELGRGEFGVTYLCTDKETDDVFACKSILKKKLRTAVDIEDVRREVEIMRHMPEHPNVVTLKETYEDEHAVHLVMELCEGGELFDRIVARGHYTERAAAAVTKTIMEVVQVCHKHGVMHRDLKPENFLFGNKKETAPLKAIDFGLSVFFKPGERFNEIVGSPYYMAPEVLKRNYGPEVDIWSAGVILYILLCGVPPFWAETEQGVAQAIIRSVLDFRRDPWPKVSENAKDLIRKMLDPDQKRRLTAQQVLDHPWLQNAKTAPNVSLGETVRARLKQFTVMNKLKKRALRVIAEHLSDEEASGIREGFQIMDTSQRGKINIDELKIGLQKLGHAIPQDDLQILMDAGDIDRDGYLDCDEFIAISVHLRKMGNDEHLKKAFAFFDQNNNGYIEIEELREALSDELGTSEEVVDAIIRDVDTDKDGRISYEEFVTMMKTGTDWRKASRQYSRERFNSISLKLMQDASLQVNGDTR
As to B1, the binding result is recorded as “binds”.
